# Test system: Escherichia coli TOP10
# Assay: shrunken log2 fold change of peptide-encoding DNA abundance (4.5 h post-induction vs induction); higher = less antimicrobial activity (less host growth inhibition)
# Conditions: time post-induction: 4.5 h; library: site-saturation at positions 5, 18, 19, 20
# 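Note: peptides expressed intracellularly from a pBAD plasmid library in pooled LB shake-flask culture, induced with 0.3% L-arabinose, DNA abundance read by NGS, three biological replicates, DESeq2 with apeglm shrinkage.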
row,Sequence,shrunken log2 fold change
1,RRIRVRPPRLPRPRPRPTSHPRP,-0.139
2,RRIRPRPPRLPRPRPRPIIFPRP,-0.0799
3,RRIRHRPPRLPRPRPRPRNGPRP,-0.0288
4,RRIRVRPPRLPRPRPRPYFTPRP,-0.689
5,RRIRDRPPRLPRPRPRPSAYPRP,0.0641
6,RRIRQRPPRLPRPRPRPFDKPRP,-0.0121
7,RRIRQRPPRLPRPRPRPACVPRP,0.0809
8,RRIRCRPPRLPRPRPRPMMGPRP,0.0355
9,RRIRMRPPRLPRPRPRPLVRPRP,0.51
10,RRIRRRPPRLPRPRPRPLWRPRP,0.348
11,RRIRRRPPRLPRPRPRPLVTPRP,-0.0631
12,RRIRARPPRLPRPRPRPNMLPRP,-0.424
13,RRIRNRPPRLPRPRPRPKLRPRP,0.00281
14,RRIRCRPPRLPRPRPRPDGLPRP,-0.0371
15,RRIRERPPRLPRPRPRPMLTPRP,0.151
16,RRIRTRPPRLPRPRPRPKKYPRP,-0.627
17,RRIRWRPPRLPRPRPRPLSMPRP,-0.159
18,RRIRDRPPRLPRPRPRPPTNPRP,0.0808
19,RRIRPRPPRLPRPRPRPWFDPRP,-0.278
20,RRIRRRPPRLPRPRPRPFPLPRP,0.49
21,RRIRCRPPRLPRPRPRPKDYPRP,-0.644
22,RRIRGRPPRLPRPRPRPLNQPRP,0.725
23,RRIRARPPRLPRPRPRPFETPRP,0.0585
24,RRIRARPPRLPRPRPRPRYDPRP,0.166
25,RRIRQRPPRLPRPRPRPACMPRP,-0.294

row,Sequence,shrunken log2 fold change
1,RRIRCRPPRLPRPRPRPQDSPRP,-0.0482
2,RRIRLRPPRLPRPRPRPAEAPRP,0.0653
3,RRIRTRPPRLPRPRPRPLQSPRP,-0.00232
4,RRIRFRPPRLPRPRPRPKRWPRP,0.0556
5,RRIRERPPRLPRPRPRPNTWPRP,0.0226
6,RRIRCRPPRLPRPRPRPMSLPRP,-0.163
7,RRIRRRPPRLPRPRPRPHKGPRP,0.221
8,RRIRMRPPRLPRPRPRPNLDPRP,0.00884
9,RRIRQRPPRLPRPRPRPYCYPRP,-0.198
10,RRIRVRPPRLPRPRPRPEDKPRP,-0.00975
11,RRIRNRPPRLPRPRPRPRVKPRP,0.139
12,RRIRFRPPRLPRPRPRPIVNPRP,0.00221
13,RRIRYRPPRLPRPRPRPNSWPRP,-0.0916
14,RRIRWRPPRLPRPRPRPRCQPRP,-0.0289
15,RRIRERPPRLPRPRPRPNVRPRP,0.0403
16,RRIRPRPPRLPRPRPRPGINPRP,-0.178
17,RRIRKRPPRLPRPRPRPIKCPRP,-0.29
18,RRIRIRPPRLPRPRPRPTMHPRP,-0.443
19,RRIRFRPPRLPRPRPRPDCPPRP,-0.364
20,RRIRGRPPRLPRPRPRPRMVPRP,0.643
21,RRIRHRPPRLPRPRPRPEQWPRP,0.0101
22,RRIRFRPPRLPRPRPRPFRKPRP,-0.122
23,RRIRNRPPRLPRPRPRPSPAPRP,0.0876
24,RRIRARPPRLPRPRPRPYHMPRP,0.00865
25,RRIRKRPPRLPRPRPRPHYYPRP,-0.0852

row,Sequence,shrunken log2 fold change
1,RRIRHRPPRLPRPRPRPPAYPRP,0.181
2,RRIRCRPPRLPRPRPRPKVSPRP,0.0213
3,RRIRPRPPRLPRPRPRPRSAPRP,0.497
4,RRIRIRPPRLPRPRPRPWMWPRP,0.0832
5,RRIRKRPPRLPRPRPRPCQTPRP,0.233
6,RRIRGRPPRLPRPRPRPAPVPRP,0.925
7,RRIRWRPPRLPRPRPRPEWFPRP,0.395
8,RRIRCRPPRLPRPRPRPWRPPRP,0.0893
9,RRIRDRPPRLPRPRPRPNQAPRP,-0.0261
10,RRIRRRPPRLPRPRPRPPWNPRP,0.474
11,RRIRERPPRLPRPRPRPEFHPRP,-0.207
12,RRIRHRPPRLPRPRPRPRKKPRP,-0.0239
13,RRIRARPPRLPRPRPRPKIPPRP,0.174
14,RRIRMRPPRLPRPRPRPPRSPRP,1.6
15,RRIRCRPPRLPRPRPRPGNCPRP,-0.0286
16,RRIRLRPPRLPRPRPRPWVHPRP,-0.3
17,RRIRDRPPRLPRPRPRPHLYPRP,0.0039
18,RRIRARPPRLPRPRPRPLTKPRP,0.339
19,RRIRSRPPRLPRPRPRPDMAPRP,-0.0366
20,RRIRARPPRLPRPRPRPWRPPRP,0.348
21,RRIRVRPPRLPRPRPRPLEPPRP,0.236
22,RRIRLRPPRLPRPRPRPQLTPRP,0.103
23,RRIRVRPPRLPRPRPRPDCTPRP,-0.068
24,RRIRARPPRLPRPRPRPCEPPRP,0.39
25,RRIRDRPPRLPRPRPRPCTFPRP,-0.0767

row,Sequence,shrunken log2 fold change
1,RRIRCRPPRLPRPRPRPPCCPRP,0.021
2,RRIRVRPPRLPRPRPRPMFSPRP,-0.284
3,RRIRGRPPRLPRPRPRPWGPPRP,0.427
4,RRIRQRPPRLPRPRPRPHWAPRP,-0.143
5,RRIRDRPPRLPRPRPRPKWWPRP,0.00489
6,RRIRERPPRLPRPRPRPKEAPRP,0.324
7,RRIRRRPPRLPRPRPRPSHIPRP,-0.0708
8,RRIRRRPPRLPRPRPRPTFKPRP,0.214
9,RRIRDRPPRLPRPRPRPAIWPRP,0.24
10,RRIRARPPRLPRPRPRPYIAPRP,-0.438
11,RRIRDRPPRLPRPRPRPEQDPRP,1.39
12,RRIRMRPPRLPRPRPRPTFWPRP,0.916
13,RRIRSRPPRLPRPRPRPLSFPRP,-0.24
14,RRIRARPPRLPRPRPRPWEAPRP,0.221
15,RRIRTRPPRLPRPRPRPAHMPRP,-0.0928
16,RRIRKRPPRLPRPRPRPALEPRP,-0.108
17,RRIRDRPPRLPRPRPRPRVQPRP,-0.183
18,RRIRCRPPRLPRPRPRPFPDPRP,-0.415
19,RRIRCRPPRLPRPRPRPVKDPRP,-0.305
20,RRIRYRPPRLPRPRPRPNFTPRP,-0.348
21,RRIRSRPPRLPRPRPRPYKFPRP,-0.15
22,RRIRDRPPRLPRPRPRPDSGPRP,-0.00436
23,RRIRARPPRLPRPRPRPDAFPRP,0.879
24,RRIRYRPPRLPRPRPRPSDHPRP,-0.42
25,RRIRKRPPRLPRPRPRPQYEPRP,0.0265

row,Sequence,shrunken log2 fold change
1,RRIRYRPPRLPRPRPRPDPIPRP,-0.168
2,RRIRTRPPRLPRPRPRPLEEPRP,-0.0207
3,RRIRWRPPRLPRPRPRPRSQPRP,0.434
4,RRIRMRPPRLPRPRPRPLYAPRP,0.063
5,RRIRVRPPRLPRPRPRPASDPRP,0.347
6,RRIRYRPPRLPRPRPRPKIWPRP,-0.475
7,RRIRMRPPRLPRPRPRPEQMPRP,2.44
8,RRIRLRPPRLPRPRPRPHITPRP,-0.824
9,RRIRLRPPRLPRPRPRPEKDPRP,0.191
10,RRIRNRPPRLPRPRPRPEGLPRP,0.364
11,RRIRVRPPRLPRPRPRPTQYPRP,0.166
12,RRIRRRPPRLPRPRPRPQSIPRP,-0.0196
13,RRIRSRPPRLPRPRPRPQLSPRP,-0.106
14,RRIRLRPPRLPRPRPRPEPFPRP,-0.0343
15,RRIRPRPPRLPRPRPRPTIRPRP,0.172
16,RRIRSRPPRLPRPRPRPYIWPRP,-0.108
17,RRIRKRPPRLPRPRPRPEHRPRP,-0.0428
18,RRIRTRPPRLPRPRPRPRQRPRP,0.394
19,RRIRMRPPRLPRPRPRPWDEPRP,0.391
20,RRIRGRPPRLPRPRPRPYHVPRP,-0.0512
21,RRIRTRPPRLPRPRPRPWDGPRP,0.0729
22,RRIRQRPPRLPRPRPRPVVGPRP,0.101
23,RRIRNRPPRLPRPRPRPKVKPRP,-0.196
24,RRIRERPPRLPRPRPRPRVWPRP,0.387
25,RRIRYRPPRLPRPRPRPCGMPRP,-0.217

row,Sequence,shrunken log2 fold change
1,RRIRYRPPRLPRPRPRPCLIPRP,-0.00819
2,RRIRVRPPRLPRPRPRPYKCPRP,-0.0495
3,RRIRMRPPRLPRPRPRPGWSPRP,0.548
4,RRIRGRPPRLPRPRPRPAKDPRP,1.84
5,RRIRGRPPRLPRPRPRPTHEPRP,1.34
6,RRIRCRPPRLPRPRPRPMFEPRP,-0.212
7,RRIRGRPPRLPRPRPRPHKTPRP,-0.0617
8,RRIRYRPPRLPRPRPRPRPIPRP,-0.0521
9,RRIRDRPPRLPRPRPRPIHDPRP,-0.58
10,RRIRRRPPRLPRPRPRPKSMPRP,0.0108
11,RRIRKRPPRLPRPRPRPDHGPRP,1.01
12,RRIRDRPPRLPRPRPRPIHIPRP,-0.734
13,RRIRQRPPRLPRPRPRPGADPRP,0.47
14,RRIRMRPPRLPRPRPRPDFHPRP,-0.129
15,RRIRERPPRLPRPRPRPQWAPRP,-0.0475
16,RRIRPRPPRLPRPRPRPDKWPRP,-0.0254
17,RRIRQRPPRLPRPRPRPNKDPRP,-0.665
18,RRIRTRPPRLPRPRPRPVVGPRP,0.626
19,RRIRSRPPRLPRPRPRPTIRPRP,0.0218
20,RRIRSRPPRLPRPRPRPAALPRP,-0.0411
21,RRIRQRPPRLPRPRPRPISPPRP,-0.0311
22,RRIRWRPPRLPRPRPRPFTNPRP,0.115
23,RRIRCRPPRLPRPRPRPGRLPRP,-0.0858
24,RRIRGRPPRLPRPRPRPMHWPRP,0.382
25,RRIRFRPPRLPRPRPRPWWAPRP,-0.377

# From the supplement of paper PMC9112550, “Optimization of the antimicrobial peptide Bac7 by deep mutational scanning” (BMC Biology, 2022)
